The assay deals with T1, calmodulin (CaM), human, wild type (human, UniProt P0DP23 1-149).
T1 construct: human calmodulin, subcloned from HEK293 cells; Vector pGEX-6P-1; also called wt CaM; apoCaM; source: E. coli BL21 (DE3), GST fusion purified on Glutathione Sepharose 4B; GST cleaved with PreScission Protease
Nature of the assay: pull-down; GST-fusion mutated IQ (T1909A, S1918A, T1934A), treated with CaMKII and CIP, incubated with a fixed concentration of CaM (1.4 uM); [Ca2+] ≈ free; Coomassie stain. The following applies: both partners purified.

Ends that are not written are not given here.

B1: GST-fusion NaV1.1 IQ domain, potential CaMKII phosphorylation sites mutant (T1909A + S1918A + T1934A) (domain or fragment)
chain: ALKRKQEEVAAVIIQRAYRRHLLKRAVK
modifications: not fully specified (N-terminus); also: GST fusion protein
notes: IQ domain of human NaV1.1, amino acids 1909-1936, with T1909A, S1918A and T1934A; the treated samples are kept as one molecule; also called mutated NaV1.1 IQ; source: E. coli BL21 (DE3), GST fusion purified on Glutathione Sepharose 4B beads
As to B1, the binding result was “binds”.

For the origin of these results see publication PMC6165294, “The Effect of Ca^2+, Lobe-Specificity, and CaMKII on CaM Binding to NaV1.1” (International Journal of Molecular Sciences, 2018).
